Several values for one entry are separate records, joined by “and”; a condition that tells them apart may be missing. Equal values may be shown once.
B8: PEX14 NTD (1-104) (domain or fragment, human, UniProt O75381 1-104, looked up)
chain: MASSEQAEQPSQPSSTPGSENVLPREPLIATAVKFLQNSRVRQSPLATRRAFLKKKGLTDEEIDMAFQQSGTAADEPSSLGPATQVVPVQPPHLISQPYSPAGS
notes: human PEX14, N-terminal domain, residues 1-104; also called PEX14 1-104; source: E. coli BL21 (DE3), purified (Ni-NTA, SUMO cleavage, reverse Ni-NTA, SEC); not shown: His6-SUMO, N-terminal, cleaved
B9: PEX14 NTD (1-104) (domain or fragment, human, UniProt O75381 1-104, looked up)
chain: MASSEQAEQPSQPSSTPGSENVLPREPLIATAVKFLQNSRVRQSPLATRRAFLKKKGLTDEEIDMAFQQSGTAADEPSSLGPATQVVPVQPPHLISQPYSPAGS
notes: human PEX14 (UniProtKB O75381), N-terminal domain, residues 1-104; also called PEX14 (1-104); source: E. coli BL21 (DE3), purified (Ni-NTA, SUMO cleavage, reverse Ni-NTA, SEC)
B12: PEX13 SH3 domain (residues 261-346) (domain or fragment, human, UniProt Q92968 261-346, looked up)
chain: VTDSINWASGEDDHVVARAEYDFAAVSEEEISFRAGDMLNLALKEQQPKVRGWLLASLDGQTTGLIPANYVKILGKRKGRKTVESS
notes: 15N-labelled in the NMR titrations, unlabelled in ITC; source: E. coli BL21 (DE3), purified (Ni-NTA, SUMO cleavage, reverse Ni-NTA, SEC); not shown: His6-SUMO, N-terminal, cleaved
B13: PEX13 SH3 domain (domain or fragment, human)
chain: VTDSINWASGEDDHVVARAEYDFAAVSEEEISFRAGDMLNLALKEQQPKVRGWLLASLDGQTTGLIPANYVKILGKRKGRKTVESS
notes: the SH3-CTR construct begins at 261 and the crystallised chimeras end the SH3 part at 346; source: E. coli BL21 (DE3), purified (Ni-NTA, SUMO cleavage, reverse Ni-NTA, SEC)

Legend:
Conditions in all cases: both partners purified
PEX14 NTD (1-104) [1] = biological target: B9; assay: ITC; PEX14 (1-104) (20-60 uM, concentration corrected with the fit) in the cell, peptide or fragment in the syringe; 25 °C, 20 mM Tris pH 7.5, 50 mM NaCl; one-site binding model; single runs of triplicates and their averages
PEX14 NTD (1-104) [2] = biological target: B8; assay: ITC; PEX14 NTD (1-104) (20-60 µM) in the cell, titrated with PEX5 W peptides or W0 (0.4-0.6 mM), PEX13 FxxxF (0.46 mM) or PEX13 SH3-CTR (1 mM); 25 °C; 20 mM Tris pH 7.5, 50 mM NaCl; one-site binding model; PEX14 concentration corrected with the fit; triplicates
PEX5 W2 peptide [3] = biological target: T1, PEX5 W2 peptide (human); assay: as above
T1 construct: 15-mer with the W2 (di)aromatic motif of human PEX5; source: synthetic peptide, bought: PSL (Peptide Specialty Laboratories GmbH)

PEX5 W3 peptide [4] = biological target: T2, PEX5 W3 peptide (human); assay: as above
T2 construct: 15-mer with the W3 (di)aromatic motif of human PEX5; source: synthetic peptide, bought: PSL (Peptide Specialty Laboratories GmbH)

PEX5 W4 peptide [5] = biological target: T3, PEX5 W4 peptide (human); assay: as above
T3 construct: source: synthetic peptide, bought: PSL (Peptide Specialty Laboratories GmbH)

PEX5 W4 peptide [6] = biological target: T4, PEX5 W4 peptide (human); assay: ITC; PEX14 (1-104) (20-60 uM, concentration corrected with the fit) in the cell, peptide or fragment in the syringe; 25 °C, 20 mM Tris pH 7.5, 50 mM NaCl; one-site binding model; single runs of triplicates and their averages
T4 construct: 15-mer with the W4 WxxxY motif of human PEX5 (R183, Y185, Y188 are named in the text); source: synthetic peptide, bought: PSL (Peptide Specialty Laboratories)

PEX5 W3 peptide [7] = biological target: T5, PEX5 W3 peptide (human); assay: as above
T5 construct: 15-mer with the W3 WxxxY motif of human PEX5; source: synthetic peptide, bought: PSL (Peptide Specialty Laboratories)

PEX5 W2 peptide [8] = biological target: T6, PEX5 W2 peptide (human); assay: as above
T6 construct: 15-mer with the W2 WxxxF motif of human PEX5; source: synthetic peptide, bought: PSL (Peptide Specialty Laboratories)

PEX5 W4 peptide [9] = biological target: T7, PEX5 W4 peptide (human); assay: ITC; PEX14 (1-104) at 20-60 µM titrated with PEX5 W peptides or W0 (0.4-0.6 mM), PEX13 FxxxF (0.46 mM) or PEX13 SH3-CTR (1 mM); 25 °C; 20 mM Tris pH 7.5, 50 mM NaCl; one-site model; PEX14 concentration corrected with the fit; triplicates
T7 construct: 15-mer with the W4 WxxxY motif of human PEX5 (R183, Y185, Y188 printed); also called PEX5 W4 motif; source: synthetic peptide, bought: PSL (Peptide Specialty Laboratories)

[10] = biological target: T8, PEX13 SH3-CTR (residues 261-403) (human, UniProt Q92968 261-403); assay: NMR titration; 15N-labelled PEX13 construct (100 µM reference) with unlabelled ligand added; 1H,15N correlation spectra; 298 K; 20 mM Tris pH 7.5, 50 mM NaCl
T8 construct: 15N-labelled in the NMR titrations, unlabelled as ITC titrant; source: E. coli BL21 (DE3), purified (Ni-NTA, SUMO cleavage, reverse Ni-NTA, SEC); not shown: His6-SUMO, N-terminal, cleaved
T8 sequence (looked up): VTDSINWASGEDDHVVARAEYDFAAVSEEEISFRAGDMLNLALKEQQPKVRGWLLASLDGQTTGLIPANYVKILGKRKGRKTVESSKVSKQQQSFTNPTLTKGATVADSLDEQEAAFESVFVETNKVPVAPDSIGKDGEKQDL

[11] = biological target: B12; assay: as above
PEX5 W4 peptide [12] = biological target: T3, PEX5 W4 peptide; assay: NMR titration; reduced (2 mM TCEP) 15N PEX13-CTR IA/CC with 4x and 8x PEX5 W4; 1H,15N correlation spectra
PEX5 W3 peptide [13] = biological target: T2, PEX5 W3 peptide; assay: ITC; PEX13 SH3 (35-48 µM) in the cell, titrated with peptide; 25 °C; 20 mM Tris pH 7.5, 50 mM NaCl; one-site binding model; triplicates
PEX5 W4 peptide [14] = biological target: T4, PEX5 W4 peptide; assay: ITC; PEX13 SH3 (35-48 uM) in the cell, peptide or fragment in the syringe; 25 °C, 20 mM Tris pH 7.5, 50 mM NaCl; one-site binding model; single runs of triplicates and their averages
PEX5 W3 peptide [15] = biological target: T5, PEX5 W3 peptide; assay: as above
PEX5 W2 peptide [16] = biological target: T6, PEX5 W2 peptide; assay: as above
[17] = biological target: B12; assay: ITC; PEX13 SH3 (35-48 µM) in the cell, titrated with peptide; 25 °C; 20 mM Tris pH 7.5, 50 mM NaCl; one-site binding model; triplicates
PEX13 SH3 domain = biological target: B13; assay: ITC; PEX13 SH3 (35-48 uM) in the cell, peptide or fragment in the syringe; 25 °C, 20 mM Tris pH 7.5, 50 mM NaCl; one-site binding model; single runs of triplicates and their averages

B1: PEX5 W1 peptide (peptide)
peptide: ALSENWAQEFLAAGD
notes: 15-mer with the W1 WxxxF motif of human PEX5; source: synthetic peptide, bought: PSL (Peptide Specialty Laboratories)
PEX14 NTD (1-104) [1]
  Kd: 75.1 nM and 62.6 nM and 79.1 nM and 72.3 nM
  stoichiometry N: 1 sites

B2: PEX5 W5 peptide (peptide)
peptide: AQAEQWAAEFIQQQG
notes: 15-mer with the W5 WxxxF motif of human PEX5; source: synthetic peptide, bought: PSL (Peptide Specialty Laboratories)
PEX14 NTD (1-104) [1]
  Kd: 17.2 nM and 18.8 nM and 25.5 nM and 20.5 nM
  stoichiometry N: 1 sites

B3: PEX5 W5 peptide (peptide)
peptide: AQAEQWAAEFIQQQG
notes: 15-mer with the W5 (di)aromatic motif of human PEX5; source: synthetic peptide, bought: PSL (Peptide Specialty Laboratories GmbH)
PEX14 NTD (1-104) [2]
  Kd: 20.5 nM
  stoichiometry N: 1

B4: PEX5 W7 peptide (peptide)
peptide: AEAHPWLSDYDDLTS
notes: 15-mer with the W7 WxxxY motif of human PEX5; source: synthetic peptide, bought: PSL (Peptide Specialty Laboratories)
PEX14 NTD (1-104) [1]
  stoichiometry N: 1 sites

B5: PEX5 W7 peptide (peptide)
peptide: AEAHPWLSDYDDLTS
notes: 15-mer with the W7 (di)aromatic motif of human PEX5; source: synthetic peptide, bought: PSL (Peptide Specialty Laboratories GmbH)
PEX14 NTD (1-104) [2]
  stoichiometry N: 1

B6: PEX5 W1 peptide (peptide)
peptide: ALSENWAQEFLAAGD
notes: 15-mer with the W1 (di)aromatic motif of human PEX5; source: synthetic peptide, bought: PSL (Peptide Specialty Laboratories GmbH)
PEX14 NTD (1-104) [2]
  Kd: 72.3 nM
  stoichiometry N: 1

B7: PEX5 W6 peptide (peptide)
peptide: GTSDAWVDQFTRPVN
notes: 15-mer with the W6 (di)aromatic motif of human PEX5; source: synthetic peptide, bought: PSL (Peptide Specialty Laboratories GmbH)
PEX14 NTD (1-104) [2]
  stoichiometry N: 1

## B8
PEX5 W2 peptide [3]
  Kd: 73.6 nM
PEX5 W3 peptide [4]
  Kd: 136 nM
PEX5 W4 peptide [5]
  Kd: 3.14 µM

## B9
PEX5 W4 peptide [6]
  Kd: 2.51 µM and 3.26 µM and 3.64 µM and 3.14 µM
PEX5 W3 peptide [7]
  Kd: 188 nM and 97.5 nM and 124 nM and 136 nM
PEX5 W2 peptide [8]
  Kd: 70.4 nM and 69.1 nM and 81.2 nM and 73.6 nM

B10: PEX14 NTD (1-104) (domain or fragment, human, UniProt O75381 1-104, looked up)
chain: MASSEQAEQPSQPSSTPGSENVLPREPLIATAVKFLQNSRVRQSPLATRRAFLKKKGLTDEEIDMAFQQSGTAADEPSSLGPATQVVPVQPPHLISQPYSPAGS
notes: human PEX14 N-terminal domain, residues 1-104; also called PEX14 (1-104); source: E. coli BL21 (DE3), purified (Ni-NTA, SUMO cleavage, reverse Ni-NTA, SEC)
PEX5 W4 peptide [9]
  Kd: 3.14 µM

## TRVPPPILPRPSQ (peptide, UniProt Q92968 49-61, looked up) [PEX13 PxxP peptide (49-61)]
[10]
  binding result: binds
[11]
  binding result: binds

B11: PEX13-CTR double cysteine mutant I333C/A376C (IA/CC) (domain or fragment, human, UniProt Q92968 261-403, looked up)
chain: VTDSINWASGEDDHVVARAEYDFAAVSEEEISFRAGDMLNLALKEQQPKVRGWLLASLDGQTTGLIPANYVKCLGKRKGRKTVESSKVSKQQQSFTNPTLTKGATVADSLDEQEACFESVFVETNKVPVAPDSIGKDGEKQDL
notes: the two states are told apart by the assay; 15N-labelled; also called PEX13 CTR IA/CC; PEX13-CTR IA/CC; source: E. coli BL21 (DE3), purified (Ni-NTA, SUMO cleavage, reverse Ni-NTA, SEC); not shown: His6-SUMO, N-terminal, cleaved
PEX5 W4 peptide [12]
  binding result: binds

## B12
PEX5 W3 peptide [13]
  Kd: 102 µM

## B13
PEX5 W4 peptide [14]
  Kd: 44.9 µM and 48.5 µM and 36.9 µM
PEX5 W3 peptide [15]
  Kd: 112 µM and 92.3 µM
PEX5 W2 peptide [16]
  Kd: 88.8 µM and 86.8 µM and 88.6 µM

B14: PEX5 W6 peptide (peptide)
peptide: GTSDAWVDQFTRPVN
notes: 15-mer with the W6 WxxxF motif of human PEX5; source: synthetic peptide, bought: PSL (Peptide Specialty Laboratories)
PEX14 NTD (1-104) [1]
  stoichiometry N: 1 sites

B15: PEX13 C-terminal peptide (351-403) with WT FxxxF motif (peptide)
chain: YGGQQQSFTNPTLTKGATVADSLDEQEAAFESVFVETNKVPVAPDSIGKDGEKQDL
notes: three residues added before residue 351; main text and some legends say 350-403; also called PEX13 FxxxF; FxxxF peptide (350-403); source: E. coli BL21 (DE3), purified (Ni-NTA, SUMO cleavage, reverse Ni-NTA, SEC); not shown: His6-SUMO, N-terminal, cleaved
[17]
  Kd: 26.9 µM
  stoichiometry N: 1

B16: PEX13 C-terminal peptide (351-403) with the FxxxF motif replaced by the PEX5 W4 motif (peptide)
chain: YGGQQQSFTNPTLTKGATVADSLDEQEAAWYDEYVETNKVPVAPDSIGKDGEKQDL
notes: three residues added before residue 351; also called FF/W4; source: E. coli BL21 (DE3), purified (Ni-NTA, SUMO cleavage, reverse Ni-NTA, SEC); not shown: His6-SUMO, N-terminal, cleaved
[17]
  Kd: 6.4 µM
  stoichiometry N: 1

B17: PEX13 FxxxF peptide (residues 350-403) (domain or fragment, human, UniProt Q92968 350-403, looked up)
chain: KQQQSFTNPTLTKGATVADSLDEQEAAFESVFVETNKVPVAPDSIGKDGEKQDL
notes: also called Pex13_FxF; source: E. coli BL21 (DE3), purified (Ni-NTA, SUMO cleavage, reverse Ni-NTA, SEC)
PEX14 NTD (1-104) [1]
  Kd: 3090 nM and 2230 nM and 3080 nM
  stoichiometry N: 1 sites
PEX13 SH3 domain
  Kd: 21.4 µM and 32.4 µM and 27 µM
  stoichiometry N: 1 sites

From publication PMC11024197 (Nature Communications, 2024)
